According to PMC8810155, “The eptinezumab:CGRP complex structure – the role of conformational changes in binding stabilization” (Bioengineered, 2021):

Biological target: T1, α-CGRP (human) 37-mer peptide (calcitonin gene-related peptide) (Homo sapiens, UniProt P06881, C-terminal amide (amidated Phe119))
T1 construct: human alpha-CGRP, mature 37-residue hormone; mature residues 26-37 correspond to 108-119 of the pro-hormone, so mature 1-37 would be 83-119; Only residues 26-37 (mature numbering; 108-119 of the pro-hormone) are visible in the complex structure; source: bought: Bachem
T1 chain: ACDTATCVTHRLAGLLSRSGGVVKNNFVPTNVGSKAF
Test: crystal structure; CGRP mixed with the Fab, complex purified by SEC; crystals at 20°C in sitting drops, 26% PEG MME 550, 9.5 mM ZnSO4, 95 mM MES pH 6.5, 30 mM glycyl-glycyl-glycine; X-ray diffraction to 3.10 Å; 2 Fab and 2 CGRP per asymmetric unit
Details: both partners purified

- binding result: binds
B1: eptinezumab antigen-binding fragment (Fab) (Fab, V domains shown)
VH: EVQLVESGGGLVQPGGSLRLSCAVSGIDLSGYYMNWVRQAPGKGLEWVGVIGINGATYYASWAKGRFTISRDNSKTTVYLQMNSLRAEDTAVYFCARGDIWGQGTLVTVSS
VL: QVLTQSPSSLSASVGDRVTINCQASQSVYHNTYLAWYQQKPGKVPKQLIYDASTLASGVPSRFSGSGSGTDFTLTISSLQPEDVATYYCLGSYDCTNGDCFVFGGGTKVEIK
notes: heavy-chain part of the papain Fab of eptinezumab (humanized IgG1); light chain of eptinezumab; CDR L3 holds a disulfide bond (Cys95, Cys100 are named); also called eptinezumab Fab; source: partial endoproteolysis of eptinezumab with immobilized papain; purified by Fc depletion followed by SEC
